Source: PMC3359377, “A Novel Tool for Studying Auxin-Metabolism: The Inhibition of Grapevine Indole-3-Acetic Acid-Amido Synthetases by a Reaction Intermediate Analogue” (PLoS ONE, 2012)

T1: GH3-1 (Vitis vinifera, UniProt F6H697)
T1 construct: gene GH3.1_2
T1 sequence (F6H697 1-598): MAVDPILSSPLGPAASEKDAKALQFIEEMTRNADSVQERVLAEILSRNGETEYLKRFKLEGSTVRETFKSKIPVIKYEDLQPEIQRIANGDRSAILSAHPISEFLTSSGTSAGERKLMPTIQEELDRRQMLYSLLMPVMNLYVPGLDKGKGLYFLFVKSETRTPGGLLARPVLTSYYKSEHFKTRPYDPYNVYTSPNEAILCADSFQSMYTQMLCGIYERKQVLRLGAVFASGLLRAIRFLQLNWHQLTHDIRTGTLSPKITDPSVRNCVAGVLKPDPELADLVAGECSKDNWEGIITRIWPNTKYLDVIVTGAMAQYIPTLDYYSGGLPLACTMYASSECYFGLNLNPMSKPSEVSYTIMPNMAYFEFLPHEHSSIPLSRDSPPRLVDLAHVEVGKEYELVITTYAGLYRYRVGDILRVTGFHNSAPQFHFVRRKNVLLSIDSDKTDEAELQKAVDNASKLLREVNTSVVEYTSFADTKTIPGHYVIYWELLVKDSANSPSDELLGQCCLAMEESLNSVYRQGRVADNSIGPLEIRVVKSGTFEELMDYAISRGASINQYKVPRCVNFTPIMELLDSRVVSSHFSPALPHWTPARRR

B1: GH3-1 (Vitis vinifera) (protein)
chain: T1 sequence (F6H697 1-598)

Experiments:
GH3-1 = molecular target: T1, GH3-1; assay: IAA-Asp formation by LC-ESI-MS/MS with recombinant enzyme; Dixon plots; type: biochemical
[1] = substrate: Nc1ncnc2c1ncn2[C@@H]1O[C@H](COP(=O)(O)OP(=O)(O)OP(=O)(O)O)[C@@H](O)[C@H]1O; assay: Michaelis-Menten kinetics (Km), LC-ESI-MS/MS of IAA-Asp; type: biochemical, Vitis vinifera; details: Mg2+ catalytic site
[2] = substrate: O=C(O)Cc1c[nH]c2ccccc12; assay: as above; type: biochemical, Vitis vinifera; details: MgATP catalytic site

Ki (GH3-1)	Molecule	Km [1]	Vmax [1]	kcat [1]	Km [2]	Vmax [2]	kcat [2]
200 nM	Nc1ncnc2c1ncn2[C@@H]1O[C@H](COP(=O)(O)OCCc2c[nH]c3ccccc23)[C@@H](O)[C@H]1O [AIEP, adenosine-5′-[2-(1H-indol-3-yl)ethyl]phosphate]	–	–	–	–	–	–
–	B1	13.2 ± 1.4 µM	0.261 µmol/min/mg	0.3 s⁻¹	21.1 ± 1.4 µM	0.384 µmol/min/mg	0.442 s⁻¹
